The experiment addresses T1, CD19 expressed on Hela cells (stable cell line Hela-CD19) (human, UniProt P15391 20-556).
T1 sequence (looked up): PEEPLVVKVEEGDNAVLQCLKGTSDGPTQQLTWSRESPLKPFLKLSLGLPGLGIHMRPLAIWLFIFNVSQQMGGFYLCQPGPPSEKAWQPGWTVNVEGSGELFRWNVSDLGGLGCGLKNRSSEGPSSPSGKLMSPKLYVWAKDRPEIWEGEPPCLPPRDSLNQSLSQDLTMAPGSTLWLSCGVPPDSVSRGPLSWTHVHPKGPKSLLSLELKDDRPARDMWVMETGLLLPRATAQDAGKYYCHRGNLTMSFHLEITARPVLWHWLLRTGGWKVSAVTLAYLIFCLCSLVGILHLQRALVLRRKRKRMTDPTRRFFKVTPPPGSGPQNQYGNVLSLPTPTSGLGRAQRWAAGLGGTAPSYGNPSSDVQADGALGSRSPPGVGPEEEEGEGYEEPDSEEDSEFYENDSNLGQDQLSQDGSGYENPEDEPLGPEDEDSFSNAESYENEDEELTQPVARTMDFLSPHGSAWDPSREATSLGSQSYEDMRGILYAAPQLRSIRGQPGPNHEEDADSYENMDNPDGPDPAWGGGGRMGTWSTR
Briefly: cell-based or functional assay.

B1: Humanized CD19-4-1BB-CD3-CAR protein (CD8 leader sequence-CD19 scFv (VL-Linker-VH)-CD8 hinge-CD8 TM-41BB-CD3-zeta), expressed on DNT cells (other)
chain: DIQMTQSPSSLSASVGDRVTITCRASQDISKYLNWYQQKPGKAPKLLIYHTSRLHSGVPSRFSGSGSGTDFTLTISSLQPEDFATYYCQQGNTLPYTFGGGTKVEIKGSTSGSGKPGSGEGSTKGQVQLQESGPGLVKPSETLSLTCTVSGGSLPDYGVSWIRQPPGKGLEWIGVIWGSETTYYNSALKSRVTISVDTSKNQFSLKLSSVTAADTAVYYCAKHYYYGGSYAMDYWGQGTLVTVSSTTTPAPRPPTPAPTIASQPLSLRPEACRPAAGGAVHTRGLDFACDIYIWAPLAGTCGVLLLSLVITLYCKRGRKKLLYIFKQPFMRPVQTTQEEDGCSCRFPEEEEGGCELRVKFSRSADAPAYKQGQNQLYNELNLGRREEYDVLDKRRGRDPEMGGKPRRKNPQEGLYNELQKDKMAEAYSEIGMKGERRRGKGHDGLYQGLSTATKDTYDALHMQALPPR
For the molecule B1, the “specific killing of Hela-CD19 by CAR19-DNT cells on day 8 of culture (RTCA, effector-target ratio 2:1, 18 h)” value stood at 98.5% and the “specific killing of Hela-CD19 by CAR19-DNT cells on day 13 of culture (RTCA, effector-target ratio 2:1, 18 h)” value was 98.1%.

Values taken from patent publication US20230279107A1 (ZHEJIANG RUIJIAMEI BIOTECH, published 2023).
